Earlier results in article PMC4741374.

Columns and labels:
G-CSFR (Homo sapiens) = G-CSFR (Homo sapiens) (UniProt Q99062)
GM-CSFR (Homo sapiens) = GM-CSFR (Homo sapiens) (UniProt P15509)
UniProt P15509, sequence (P15509 23-320, chain 1 of 2): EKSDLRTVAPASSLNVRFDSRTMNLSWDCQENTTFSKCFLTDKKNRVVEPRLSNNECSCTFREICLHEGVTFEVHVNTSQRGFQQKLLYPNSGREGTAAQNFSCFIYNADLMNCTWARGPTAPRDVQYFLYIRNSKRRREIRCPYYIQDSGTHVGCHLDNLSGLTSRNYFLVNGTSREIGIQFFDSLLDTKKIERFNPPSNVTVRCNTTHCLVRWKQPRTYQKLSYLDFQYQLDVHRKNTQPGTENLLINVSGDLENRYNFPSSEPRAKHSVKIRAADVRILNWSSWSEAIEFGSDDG
UniProt P15509, sequence (P32927 17-443, chain 2 of 2, further chain): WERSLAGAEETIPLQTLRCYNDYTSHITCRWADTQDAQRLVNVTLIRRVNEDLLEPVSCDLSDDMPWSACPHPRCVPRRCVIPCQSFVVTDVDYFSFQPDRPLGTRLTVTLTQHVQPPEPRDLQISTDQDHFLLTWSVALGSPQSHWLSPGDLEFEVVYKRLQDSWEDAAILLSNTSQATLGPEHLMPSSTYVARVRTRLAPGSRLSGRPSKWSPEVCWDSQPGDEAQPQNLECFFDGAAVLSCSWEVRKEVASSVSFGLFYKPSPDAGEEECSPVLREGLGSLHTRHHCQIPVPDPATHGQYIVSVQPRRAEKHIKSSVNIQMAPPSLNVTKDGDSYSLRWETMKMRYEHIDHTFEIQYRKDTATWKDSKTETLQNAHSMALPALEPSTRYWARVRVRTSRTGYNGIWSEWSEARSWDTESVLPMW

UniProt Q99062, sequence (Q99062 25-627): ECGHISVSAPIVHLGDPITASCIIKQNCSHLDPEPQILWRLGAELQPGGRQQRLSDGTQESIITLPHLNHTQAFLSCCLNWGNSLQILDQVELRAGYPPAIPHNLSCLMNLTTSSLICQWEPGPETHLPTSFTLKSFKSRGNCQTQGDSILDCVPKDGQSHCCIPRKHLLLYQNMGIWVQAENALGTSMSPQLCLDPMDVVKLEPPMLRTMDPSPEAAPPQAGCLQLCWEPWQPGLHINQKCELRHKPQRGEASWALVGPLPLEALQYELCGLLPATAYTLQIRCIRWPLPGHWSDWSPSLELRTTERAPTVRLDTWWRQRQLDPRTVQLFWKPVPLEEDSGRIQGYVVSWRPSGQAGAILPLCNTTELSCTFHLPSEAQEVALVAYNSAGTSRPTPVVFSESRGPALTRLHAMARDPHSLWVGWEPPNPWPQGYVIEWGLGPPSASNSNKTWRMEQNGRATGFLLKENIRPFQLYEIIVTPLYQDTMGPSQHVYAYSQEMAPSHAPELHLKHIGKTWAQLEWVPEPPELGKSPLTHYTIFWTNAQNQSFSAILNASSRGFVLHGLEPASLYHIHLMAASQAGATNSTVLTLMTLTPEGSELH

For G-CSF (from UniProt P09919), the Kd (G-CSFR (Homo sapiens)) is given as 500 pM.

In the case of GM-CSF (from UniProt P04141), the Kd (GM-CSFR (Homo sapiens)) is given as 100 pM.
